Data taken from paper PMC12062419 (2025).

Target: T1, human migfilin (residues 1-85) Ser12His (human, UniProt Q8WUP2 1-85, Ser12His)
T1 sequence: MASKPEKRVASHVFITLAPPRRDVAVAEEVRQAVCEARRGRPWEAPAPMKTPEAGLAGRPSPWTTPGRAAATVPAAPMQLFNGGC
Assay: NMR

B1: GST-tagged human filamin A domain 21 (FLNa21) labelled with 4-trifluoromethyl-L-phenylalanine at position 2274 (domain or fragment)
chain: GGAHKVRAGGPGLERAEAGVPAEFSIWTREAGAGGLAIFVEGPSKAEISFEDRKDGSCGVAYVVQEPGDYEVSVKFNEEHIPDSPFVVPVASP
modifications: 4-trifluoromethyl-L-phenylalanine (tfmF) at position 2274
B1 was tested, and the Kd was 4.9 µM.
